Measurements as given in the DeepSol protein solubility set.

Assay: soluble on expression in E. coli; label from the status in PepcDB or PDB records

| Sequence | soluble on expression in E. coli |
| --- | --- |
| MEFIGDTRIVIINPLGAKKICRLTFEQIKVIYQEVKTHFENYRIIFTGLPQDLLTIPILEIETLPFDEFIYTVALTKYSDFVISVDTALVHIAAAYHKPTLAFYPNSRTPEYPSHLIWSPNHHKSIQIVSPTYTVKDIDTETLTNSVKRLSCIDKKLEHHHHHH | soluble |
| MSLSLYQSVRAVANARGGETEWIDWRATAEAAKQARDQGALTLDDAERRAYATDVRDARSRLRTVGGLEFDIPQTIEVQNRHHWIDANIKTFERMLDPIDIATLIDDTNALNGPSGYATRMVNTGSMAAALAFLSGNVLGQYDPQLLSQTTDTIETNENNHELYFVHPNIVDVAAELDVEYPRFRRWIAFHEVAHAAEFGAAPWLRTHIEDRIESGLEALTGGRLDRSAFSDVDIVMTAVEGYAELLMDRAFDKEYADLRAKLDARRGGGGPVAQLFRRLLGLGVKERQYERGAQFFETIADQRGVKAAATVWEDPRYLPDESELDNPQYWIDRVNEGHHHHHH | not soluble |
| MEEWIQYARDMAKAEKELEIELWVIISFYRTTEQGGKVLLFRYDLPRKVADKYDWVVRWRRARLTCQYPKGNVTHTYCLYDRHSGEDYSFGSCLSSLAAAKAQVTRMERRIREYTTWQKQNNLFFDEQTDEMLQKAVTKLKIKKENVQEAERRLQRKAEKHQREMRK | not soluble |
| HHYVKGELKIAASFTIGEYILPPLLAQLQKLYPELNLDVMIGNTEEVSERVRMLQADIGLIEGHTNENELEIEPFMEDEMCIAAPNQHPLAGRKEISISDLQNEAWVTREKGSGTREYLDHVLSSNGLRPKSMFTISSNQGVK | not soluble |
| MDLRRFITLKTVVEEGSFLRASQKLCCTQSTVTFHIQQLEQEFSVQLFEKIGRRMCLTREGKKLLPHIYELTRVMDTLREAAKKESDPDGELRVVSGETLLSYRMPQVLQRFRQRAPKVRLSLQSLNCYVIRDALLNDEADVGVFYRVGNDDALNRRELGEQSLVLVASPQIADVDFTEPGRHNACSFIINEPQCVFRQIFESTLRQRRITVENTIELISIESIKRCVAANIGVSYLPRFAVAKELECGELIELPFGEQSQTITAMCAHHAGKAVSPAMHTFIQCVEESFVAG | soluble |
| GPGSMSSCTHPTSALFVDRQNGRTTCTICGDVVTTDQYELDPIFAQGGRQPASGGGLRGLAGSFRPATSYKGTHTGVIHSHSRPTIDKARREMLNISRQLEISEDTVERALGIYKVALNLNAVSGTRPSVLCACLYAACRRERTSHVIYDFSEINGEDPHTILSQMKYICHATHTEVPVIDPSCYVQRFAEQMDLGPQTTDVVVCALKVLRAMQDDWISCGRRPMGVCAAALLVACYVFGISRTPEQVCGMVRLTSNTIGKRLTEFAATPTARLENIDDYQPSHETLPPAFNDSSRKSTEEDVHASMRELSAIFYELVSEAKTSQPATPERCDKWRRFIMKHCELEGITPLEENLDLKGLPPAQQLHILGLPHTKPIPLEEVARSVKREEHRLLVKREASLQNGSDAGGSMSGARQGAVAGLLNNADVSSNGIPLYLLPDESLASSLAQASPAMGYADDGGMHSSSAAVGAASMDSPEQLRWMTDEYTRLLNSNAEVMHLRNDFDFADEDDANGAGGSSGGGAVAPPVSHPTQNQPFSCGLSQLRGGSPPPGTPAEEDPFGFFDRDDEGTRLALEEILYDRERRHALPWEFLVLPRVEEDDCTDILSYLVLDNEERLRRERIGVSLYGEKWKRGRARTDEEIQKLEEARASKRRRRSVIAEPAVDVPTAMERALRGRGAGTVNISQIGELLPGMLEFLEDEPQADWD | not soluble |
| MNALLSNPFKERLRKGEVQIGLWLSSTTAYMAEIAATSGYDWLLIDGEHAPNTIQDLYHQLQAVAPYASQPVIRPVEGSKPLIKQVLDIGAQTLLIPMVDTAEQARQVVSATRYPPYGERGVGASVARAARWGRIENYMAQVNDSLCLLVQVESKTALDNLDEILDVEGIDGVFIGPADLSASLGYPDNAGHPEVQRIIETSIRRIRAAGKAAGFLAVAPDMAQQCLAWGANFVAVGVDTMLYSDALDQRLAMFKSGKNGPRIKGSY | soluble |
| MAPKDITFVERCYKYIDMNKNNWSPYTVTSTKSWVKNYIEPFFKNLKLTEVNPSSVQAFVNYNFNNSTFTSAKVRYSFLSSVIREAYRLREIQENSCDFIKLPLEHHHHHH | soluble |
| GAMASLVVPNLMGNKDKADRQKVMSDLVALESTLDMYRLDNNRYPTTEQGLRALVSKPTVQPEPRNYRQDGYIRRLPQDPWGGDYQLLNPGQYSDIDIFSPGPDGVPNTEDDIGNWTLGNAQP | soluble |
| MAPTQAGHDTAYLKETVGEALARGCAAAISAQPNDPVEYLGLWLLKYVKNAEVEGNFYRERQQDLQKKKDRLVKEAQSEQAAKSVALTRKEAADALALVTAEPRELLEAAVKLVKQHTAAGAAYAAVVAEPEEPDWVAPEDDEAAAVETEDEAAGGAALAEGEEPPPEPEPEPEAAPEDGEGDAPAPKIPRPVDYSKKYFAYVAASAGQEHVLEADLYRPAPPPEDADEDFKPEPLPYSFRVLDEKLPMLYVPNVAAEERVKFFRKFPKIGSYQACGVALPASGEFKALLAADTLFPEGSGQPLSADDRDFVWEVSQSLSRALEAVQARAAEALAATSAAEAVEELKAKVAELREQAAAEAAAAAPPPPAEGEEGEGEAPPAEEEPPAEEEAEEEEEEAEEGAEEGAEEGEEGEEAPPKPKKKKKVFNPIPGLQAAIEKLTAAAEAATEADARAQAAVALEKQALDEVVALASSHSDATLSSLRNMLSVPQGTYHVVKALLHLLGRPAASFSTWKRAHSHFSPRLFEDMAAYDATAERDMAVWGRVRSCYKAAPAAKKLDAEMPNTLFGSVALMYIKQVRRVARKAVLQRELAAKLAKAQQDLADKQAALVEAERVKAEREAEEARLAAEAEAAAAAEAEAAARAAAEAEAAAAAEAAAEAAAEAAAAAAEAAAEAGEGEAVAEREAAPAEAEAAPAEGEAAPPAEGEGEAQPAQEGSNSSSSSSDSSSSEESKAAAE | not soluble |
| MGSDKIHHHHHHVKKLLNTLFINQSDSYLALDGGNVLVKADGQVLGRVPLHNLEGIVAFGYTGASPALMGHCAENGIALTFMTKNGRFLARVIGESRGNVVLRKTQYRRSDDEVASARLAKNFILGKLYNQKWMLERMTRDYPLRLDVERFKTTSQDMTETMREIQVCENLERLRGLEGTIAVRYNRLFDSMILQQKEDFHFKGRTRRPPLDRVNAMLSFAYSLLARDVSAALEAVGLDAYVGFLHRERPGRASLALDVMEELRGIYADRFVLSLINKKVIQGKDFLQKENGAVIMTEEGRKTFLTAWQKKKQETIQHPYLKEKMMWGLVPYEQALLLARHLRDDLEAYPPFLYK | not soluble |
| GPGSMSVRIRFILTGACPPSYSGKQVQLNFPLEDENGAPTTTAHLKQLIRTQWPENMSEMKEVVEKTEMRVLKTGNLLSDDTQIRSVLTATELSECSINPSAEGSGRADEDQKSVLMHLVFQSNQSQGRQRDGSAGGGRRDNASHDSGCCTML | soluble |
| MADLSFIEDTVAFPEKEEDEEEEEEGVEWGYEEGVEWGLVFPDANGEYQSPINLNSREARYDPSLLDVRLSPNYVVCRDCEVTNDGHTIQVILKSKSVLSGGPLPQGHEFELYEVRFHWGRENQRGSEHTVNFKAFPMELHLIHWNSTLFGSIDEAVGKPHGIAIIALFVQIGKEHVGLKAVTEILQDIQYKGKSKTIPCFNPNTLLPDPLLRDYWVYEGSLTIPPCSEGVTWILFRYPLTISQLQIEEFRRLRTHVKGAELVEGCDGILGDNFRPTQPLSDRVIRAAFQLEHHHHHH | soluble |
| MSLGEKRVELHLHTPMSQMDAVTPVSKLVAQAGKWGHEAIAVTDHAVAQSFPEAYSAGKKAGVKVIYGVEANLVNDGVPIAYNEEHRLLADETYVVFDVETTGLSAVYDTVIELAAVKVKGGEIIDRFESFANPHQPLSATIIELTGITDDMLTDAPEVDEVFKKFEEWMGDHTLVAHNASFDMGFINVGFKKAGLEKTKNPVIDTLELARFLFPEMKNHRLNTLCKKMDIELTQHHRAIYDTEATGYLLVKMLKDVIEKGFEYHDQLNDSMGQGDAYKRGRPSHMTLLATSDVGLKNLYKLVSYSHLNYFYRVPRVPRSLLKKYREGILVGTACDKGEVFEAMMQKAPEEVEEIAQFYDYIEVMPPEVLRHLVERELVRDEGQLKTIISNLVKLGETLDKPVVATGNVHYLDPEDAMYRKILVSSQGGANPLNRHSEGHHHHHH | soluble |
